The values below are quoted from earlier work in US20230416704A1, “LACTONASE AND STABILIZED MUTANTS THEREOF FOR TREATING FUNGAL INFECTIONS IN PLANTS” (MIGAL GALILEE RESEARCH INSTITUTE LTD., priority 2020, published 2023).

The conditions of this series: as shown in WO 2020/255131; cited from earlier work.

B1: H172Y: M. tuberculosis phosphotriesterase-like lactonase (PPH) with H172 substituted by tyrosine (protein)
chain: MISEFPELNTARGPIDTADLGVTLMHEHVFIMTTEIAQNYPEAWGDEDKRVAGAIARLGELKARGVDTIVDLTVIGLGRYIPRIARVAAATELNIVVATGLYTYNDVPFYFHYLGPGAQLDGPEIMTDMFVRDIEHGIADTGIKAGILKCATDEPGLTPGVERVLRAVAQAYKRTGAPISTHTHAGLRRGLDQQRIFAEEGVDLSRVVIGHCGDSTDVGYLEELIAAGSYLGMDRFGVDVISPFQDRVNIVARMCERGHADKMVLSHDACCYFDALPEELVPVAMPNWHYLHIHNDVIPALKQHGVTDEQLHTMLVDNPRRIFERQGGYQ
On to B1, for which the “temperature of 50% residual activity” value is “about 65 °C”.
